Columns and labels:
Assay in all cases: pulldown
[1] = target: T1, HNRNPL C396G (Homo sapiens) (UniProt P14866); conditions: 20 nM protein, 1.5 uM RNA pool; 20 mM HEPES pH 7.8, 70 mM KCl, 10 mM NaCl, 10% glycerol, 2 mM DTT, 0.1 ug/uL BSA; 30 min, 4 C (protocol of this paper; not …); cited from earlier work
T1 sequence: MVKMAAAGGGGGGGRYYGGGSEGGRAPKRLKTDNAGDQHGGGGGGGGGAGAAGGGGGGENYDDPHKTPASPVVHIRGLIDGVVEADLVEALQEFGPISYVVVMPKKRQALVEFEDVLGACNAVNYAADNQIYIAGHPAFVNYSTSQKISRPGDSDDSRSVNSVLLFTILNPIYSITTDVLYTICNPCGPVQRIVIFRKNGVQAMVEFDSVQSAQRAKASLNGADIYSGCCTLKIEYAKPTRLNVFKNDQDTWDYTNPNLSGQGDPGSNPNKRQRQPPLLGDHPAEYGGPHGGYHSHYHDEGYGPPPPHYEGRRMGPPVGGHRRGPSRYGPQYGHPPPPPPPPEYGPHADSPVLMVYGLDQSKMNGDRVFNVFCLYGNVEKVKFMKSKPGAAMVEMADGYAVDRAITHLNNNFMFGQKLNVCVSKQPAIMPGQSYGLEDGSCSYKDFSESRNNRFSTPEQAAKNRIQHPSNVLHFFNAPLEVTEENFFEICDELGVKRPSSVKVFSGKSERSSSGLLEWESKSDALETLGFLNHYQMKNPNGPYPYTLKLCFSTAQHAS

[2] = target: T2, B0280.17 (Caenorhabditis elegans) (UniProt Q2V4X2); conditions: 20 nM protein, 1.5 uM RNA pool; 20 mM HEPES pH 7.8, 70 mM KCl, 10 mM NaCl, 10% glycerol, 2 mM DTT, 0.1 ug/uL BSA; 30 min, 4 C
T2 sequence: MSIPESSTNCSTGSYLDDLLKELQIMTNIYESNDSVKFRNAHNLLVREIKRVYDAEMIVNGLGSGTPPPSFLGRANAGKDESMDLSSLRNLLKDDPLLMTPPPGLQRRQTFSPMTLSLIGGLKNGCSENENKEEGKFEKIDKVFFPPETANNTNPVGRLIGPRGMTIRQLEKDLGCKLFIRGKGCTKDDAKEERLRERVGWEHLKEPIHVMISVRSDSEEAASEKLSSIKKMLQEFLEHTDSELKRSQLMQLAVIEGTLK

[3] = target: T3, PK00840.1 S382G (Cannabis sativa) (UniProt A0A803NL23); conditions: 20 nM protein, 1.5 uM RNA pool; 20 mM HEPES pH 7.8, 70 mM KCl, 10 mM NaCl, 10% glycerol, 2 mM DTT, 0.1 ug/uL BSA; 30 min, 4 C
T3 sequence: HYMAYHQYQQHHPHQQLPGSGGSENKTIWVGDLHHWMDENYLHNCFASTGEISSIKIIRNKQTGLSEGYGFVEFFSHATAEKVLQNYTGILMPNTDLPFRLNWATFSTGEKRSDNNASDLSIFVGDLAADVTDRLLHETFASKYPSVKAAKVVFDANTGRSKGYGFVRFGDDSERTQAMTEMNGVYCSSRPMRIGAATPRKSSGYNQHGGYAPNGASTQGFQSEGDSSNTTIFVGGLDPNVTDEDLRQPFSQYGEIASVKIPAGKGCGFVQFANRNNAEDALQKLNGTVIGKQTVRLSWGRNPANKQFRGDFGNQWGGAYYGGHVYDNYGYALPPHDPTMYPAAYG

[4] = target: T4, C44B7.2 (Caenorhabditis elegans) (UniProt Q95QR5); conditions: 20 nM protein, 1.5 uM RNA pool; 20 mM HEPES pH 7.8, 70 mM KCl, 10 mM NaCl, 10% glycerol, 2 mM DTT, 0.1 ug/uL BSA; 30 min, 4 C
T4 sequence: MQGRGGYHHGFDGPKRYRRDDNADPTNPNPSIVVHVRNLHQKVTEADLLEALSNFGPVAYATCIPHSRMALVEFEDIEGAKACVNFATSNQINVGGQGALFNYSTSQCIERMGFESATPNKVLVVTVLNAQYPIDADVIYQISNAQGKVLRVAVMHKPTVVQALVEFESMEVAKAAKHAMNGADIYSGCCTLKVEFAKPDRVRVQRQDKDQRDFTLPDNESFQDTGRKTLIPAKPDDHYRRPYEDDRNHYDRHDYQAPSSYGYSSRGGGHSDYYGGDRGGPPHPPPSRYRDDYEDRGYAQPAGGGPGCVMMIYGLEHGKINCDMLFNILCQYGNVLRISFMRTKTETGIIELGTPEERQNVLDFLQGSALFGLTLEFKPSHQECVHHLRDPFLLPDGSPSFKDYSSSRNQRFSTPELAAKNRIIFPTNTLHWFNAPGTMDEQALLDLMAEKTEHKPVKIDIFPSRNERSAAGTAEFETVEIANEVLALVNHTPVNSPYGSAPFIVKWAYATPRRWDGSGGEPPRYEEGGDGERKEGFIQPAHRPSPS

[5] = target: T5, UBA2B (Arabidopsis thaliana) (UniProt O80678); conditions: 20 nM protein, 1.5 uM RNA pool; 20 mM HEPES pH 7.8, 70 mM KCl, 10 mM NaCl, 10% glycerol, 2 mM DTT, 0.1 ug/uL BSA; 30 min, 4 C
T5 sequence: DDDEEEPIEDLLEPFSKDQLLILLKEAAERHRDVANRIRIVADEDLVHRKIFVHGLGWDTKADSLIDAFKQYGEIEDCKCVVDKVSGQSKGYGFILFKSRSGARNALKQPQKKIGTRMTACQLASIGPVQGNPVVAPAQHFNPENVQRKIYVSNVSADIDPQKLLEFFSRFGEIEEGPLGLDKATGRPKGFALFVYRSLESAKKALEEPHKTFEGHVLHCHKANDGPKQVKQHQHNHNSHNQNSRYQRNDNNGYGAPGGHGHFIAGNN

[6] = target: PGTG_00837 (Puccinia graminis) (UniProt E3JTY5); conditions: 20 nM protein, 1.5 uM RNA pool; 20 mM HEPES pH 7.8, 70 mM KCl, 10 mM NaCl, 10% glycerol, 2 mM DTT, 0.1 ug/uL BSA; 30 min, 4 C
[7] = target: T6, K07H8.9 (Caenorhabditis elegans) (UniProt O45180); conditions: 20 nM protein, 1.5 uM RNA pool; 20 mM HEPES pH 7.8, 70 mM KCl, 10 mM NaCl, 10% glycerol, 2 mM DTT, 0.1 ug/uL BSA; 30 min, 4 C
T6 sequence: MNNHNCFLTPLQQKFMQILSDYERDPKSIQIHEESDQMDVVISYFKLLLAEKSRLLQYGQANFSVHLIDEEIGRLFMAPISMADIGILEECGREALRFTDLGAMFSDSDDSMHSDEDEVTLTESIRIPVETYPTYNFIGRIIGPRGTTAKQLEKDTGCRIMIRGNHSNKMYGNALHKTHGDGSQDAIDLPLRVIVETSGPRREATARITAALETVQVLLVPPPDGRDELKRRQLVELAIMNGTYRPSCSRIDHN

Substance: ACACACAA [RNAcompete motif RNCMPT00027]
- binding signal (z-score (mean of top ten 7-mers)) [1]: 8.6

Substance: ACUAACA [RNAcompete motif RNCMPT00467]
- binding signal (z-score (mean of top ten 7-mers)) [2]: 10.4

Substance: UUUUUU [RNAcompete motif RNCMPT00461]
- binding signal (z-score (mean of top ten 7-mers)) [3]: 7.67

Substance: AACANA [RNAcompete motif RNCMPT00468]
- binding signal (z-score (mean of top ten 7-mers)) [4]: 8.36

Substance: UUUUU [RNAcompete motif RNCMPT00475]
- binding signal (z-score (mean of top ten 7-mers)) [5]: 10.7

Substance: GGUGGA [RNAcompete motif RNCMPT00476]
- binding signal (z-score (mean of top ten 7-mers)) [6]: 6.99

Substance: UACUNAC [RNAcompete motif RNCMPT00469]
- binding signal (z-score (mean of top ten 7-mers)) [7]: 7.13
